Experiments:
Human HER2-His = target: T1, Human HER2-His (Homo sapiens, UniProt P04626); assay: Affinity to target protein by biolayer interferometry (Octet Red96e); format: binding; details: analyte Human HER2-His
T1 construct: His; purchased Sinobiologics 10004-H08H
Protocol: Antibody affinity was assessed using Octet Red96e (ForteBio). The association rate constant (ka), dissociation rate constant (kd) and affinity constant (KD) were measured by biolayer interferometry with anti-hIgG Fc (AHC) capture biosensors (Fortebio cat #18-5063). Each cycle was performed with orbital shake speed of 1,000 rpm. Antigen was titrated 1:2 from a suitable starting concentration in kinetics buffer (Fortebio, Cat #18-1105). A set of AHC biosensors was dipped in kinetics buffer for baseline step of 60s. Anti-Target VHH-Fc (5 μg/mL, in kinetics buffer) was loaded onto the biosensors for 240 s followed by a second baseline step of 30 s. The IgG captured sensors were dipped into buffer for single reference subtraction to compensate natural dissociation of capture IgG. Each biosensor was then dipped into corresponding concentration of target protein (human, murine or cynomolgus monomeric protein) for 600 s, followed by 1800 s of dissociation time in kinetics buffer, or conditions as optimized. A new set of AHC biosensors was used for every VHH-Fc. The data was analyzed by global fit 1:1 model for the association and dissociation step, (Octet software version v11.0).

HEK-DLL3 cells = assay: Internalization assay (pHAb dye labelled secondary antibody, flow cytometry); format: cell-based; details: 75 nM, 37° C.
Protocol: (§1) VHH-Fcs were tested for internalization by target-expressing cells using a secondary antibody conjugated to a pH sensitive dye. Goat anti-hu IgG-Fc secondary antibody was amine-conjugated to a pH sensitive pHAb dye (Promega Cat #G9845) according to the manufacturer's instructions. The pHAb dye has low or no fluorescence at pH>7 but fluoresces in acidic environment upon antibody internalization. […] VHH-Fcs and hIgG1 isotype control were diluted in media to 75 nM. Cells were spun to remove supernatant, resuspended with the prepared primary antibodies and incubated on ice for 1 hour. Excess primary antibody was washed off from cells and then incubated with pHAb labelled secondary antibody on ice for 30 minutes. Excess secondary was then washed off and cells were resuspended in media. One set of samples was placed in an incubator at 37° C. to allow internalization, and another set was left on ice (0° C.) as a binding only control. Cells were sampled at different time points ranging from 0 to 24 hours. Cells were stained with DAPI and read by flow cytometry on 572/28 channel with iQue screener platform. The VHH-Fcs show higher fluorescence than the negative controls (isotype, buffer) on target-positive cells.

SHP-77 cells = assay: as above; format: cell-based; details: 75 nM, 37° C.
Protocol: as §1

hFcRn = target: T2, hFcRn (Homo sapiens, UniProt P55899); assay: FcRn affinity by biolayer interferometry (Octet RED96e), pH 6.0; details: pH 6.0, 2:1 binding model
T2 construct: purchased Sino Biological CT071-H27H-B
Protocol: FcRn affinity of VHH-Fc can generally be used to predict the half-life of antibody serum clearance. (See, e.g., Datta-Mannan A et al. “FcRn affinity-pharmacokinetic relationship of five human IgG4 antibodies engineered for improved in vitro FcRn binding properties in cynomolgus monkeys.” Drug Metab Dispos. 2012 August; 40(8):1545-55). Briefly, 10 nM of biotinylated hFcRn (Sino Biological, Cat #: CT071-H27H-B) was captured with the SA biosensor using Octet RED96e (Fortebio). The hFcRN coated biosensor was dipped into the sample solutions in sodium phosphate buffer (100 mM Na2HPO4, 150 mM NaCl w/ 0.05% Tween-20, pH 6.0) with serial concentrations of tested antibodies and the association measured. The dissociation was measured by dipping the biosensors into sodium phosphate buffer without antibody. The KD values were determined using Octet Data Analysis HT 11.0 software. 2:1 (Heterogeneous Ligand) binding model was used in analysis. […] Changes in FcRn affinity were consistent across targets. Constructs with Fc Effector mutation only have no impact on FcRn affinity.

FcγRIIb/c = target: T3, FcγRIIb/c (Homo sapiens, UniProt P31994); assay: FcγR affinity by biolayer interferometry (Octet Red96e); format: binding
T3 construct: purchased Acro Biosystems
T3 sequence (P31994 43-310): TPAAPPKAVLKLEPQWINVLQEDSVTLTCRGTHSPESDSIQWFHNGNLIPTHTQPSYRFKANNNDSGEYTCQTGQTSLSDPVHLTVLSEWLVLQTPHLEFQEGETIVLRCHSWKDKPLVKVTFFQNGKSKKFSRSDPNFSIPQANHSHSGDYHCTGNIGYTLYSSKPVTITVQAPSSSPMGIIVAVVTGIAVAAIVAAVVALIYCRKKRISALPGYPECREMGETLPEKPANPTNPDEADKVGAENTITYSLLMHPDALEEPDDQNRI
Protocol: VHH-Fcs were also tested for affinity to FcγRs by biolayer interferometry using the Octet Red96e platform. Each cycle is performed with orbital shake speed of 1,000 rpm. Streptavidin (SA) biosensors (Sartorius 18-5019) were rehydrated for 10 mins using kinetics buffer (PBS+0.1% BSA+0.02% Tween-20). Biotinylated-FcγRs (Acro Biosystems) were then loaded for 40-100 s onto SA biosensors at concentrations ranging between 1-5 μg/mL diluted in PBS. VHH-Fcs were serially diluted 1:2 in sample buffer (PBS+0.02% Tween-20) with starting concentrations ranging between 5000 nM to 37.5 nM. Loaded biosensors were then associated with VHH-Fcs for 60-120 s. VHH-Fc dissociation was measured for 30-900 s in sample buffer. Bound VHH-Fcs were then removed using 3 cycles of 5 s regeneration buffer (150 mM NaCl, 300 mM Sodium Citrate) and 5 s sample buffer. The data was analyzed either using a globally-fitted 1:1 Langmuir binding model (FcγRI) or steady state analysis (Octet software version HT v11.1).

human insulin = target: T4, human insulin (Homo sapiens, UniProt P01308); assay: Polyreactivity ELISA; format: binding; details: 10 μg/mL VHH-Fc; signal normalized to non-coated well
T4 construct: 5 μg/mL of human insulin (SigmaAlrich, Cat #: I9278); purchased SigmaAlrich I9278
Protocol: Polyreactivity of VHH-Fcs against negatively charged biomolecules was determined by ELISA (As in Avery et al., “Establishing in vitro in vivo correlations to screen monoclonal antibodies for physicochemical properties related to favorable human pharmacokinetics.” MAbs. 2018 February/March; 10(2):244-255). Briefly, ELISA plate was coated with 5 μg/mL of human insulin (SigmaAlrich, Cat #: I9278) and 10 μg/mL of double stranded DNA (SigmaAlrich, Cat #: D1626-250MG) overnight. The plate was blocked with ELISA buffer (PBS, 1 mM EDTA, 0.05% Tween-20, pH 7.4). 10 μg/mL of test VHH-Fcs was loaded onto the plates in quadruplicates and incubated for 2 hours. Goat anti-human Fc(0.01 ug/ml) conjugated with HRP was then added and the plate incubated for 1 hour. The signal was developed with TMB and A450 absorbance was measured with Synergy Neo2 plate reader. The signal was normalized with the signal of non-coated well for each antibody tested.

T2 sequence (P55899 24-297 limits assumed): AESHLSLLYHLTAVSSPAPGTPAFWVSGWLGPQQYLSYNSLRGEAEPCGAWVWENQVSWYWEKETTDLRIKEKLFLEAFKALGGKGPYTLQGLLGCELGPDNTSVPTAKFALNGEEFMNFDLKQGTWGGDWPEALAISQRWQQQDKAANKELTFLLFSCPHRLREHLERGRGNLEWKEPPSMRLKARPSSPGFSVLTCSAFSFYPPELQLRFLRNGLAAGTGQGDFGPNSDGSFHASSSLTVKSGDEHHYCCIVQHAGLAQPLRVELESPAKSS
T2 sequence (P61769 21-119 partner): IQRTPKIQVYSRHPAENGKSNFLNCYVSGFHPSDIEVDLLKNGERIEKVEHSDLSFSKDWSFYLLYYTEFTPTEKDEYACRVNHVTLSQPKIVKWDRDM
T4 sequence (P01308 25-54 limits assumed): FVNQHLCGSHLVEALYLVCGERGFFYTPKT
T4 sequence (P01308 90-110 limits assumed): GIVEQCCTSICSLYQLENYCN

## H101: anti-HER2 VHH-Fc (2RS15d VHH, human IgG1 Fc); FcRn wt, Fc effector wt [Compound H101]
Human HER2-His
  Kd: 3.79 nM
HEK-DLL3 cells
  Internalization: internalized
SHP-77 cells
  Internalization: internalized
hFcRn
  Kd: 3.7 nM
FcγRIIb/c
  Kd: 450 nM
Human insulin
  Polyreactivity Assay Score, Insulin: 1.176

— patent US20260183437A1, “VHH ANTIBODY CONJUGATES WITH HETEROARYL CHELATORS” (ABDERA THERAPEUTICS INC., priority 2022, published 2026)
